The values that follow come from patent US20240392004A1 (IMMUNOWAKE, published 2024).

In assay [1] the target is T1, human TIGIT on HEK-Blue reporter cells (human, UniProt Q495A1 22-244).
T1 sequence (looked up): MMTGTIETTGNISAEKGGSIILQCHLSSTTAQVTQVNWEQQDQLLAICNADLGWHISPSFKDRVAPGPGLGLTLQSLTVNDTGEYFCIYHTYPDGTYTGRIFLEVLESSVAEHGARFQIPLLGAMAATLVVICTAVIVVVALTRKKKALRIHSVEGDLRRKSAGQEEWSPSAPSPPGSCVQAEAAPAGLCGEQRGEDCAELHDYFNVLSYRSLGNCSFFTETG
Put plainly: cell-based or functional assay.

Assay [2] has as its target T2, human IL-2 receptor (IL-2Rα, IL-2Rβ, IL-2Rγ) (human, UniProt P01589 22-272; P14784 27-551; P31785 23-369).
T2 sequence (looked up) 1: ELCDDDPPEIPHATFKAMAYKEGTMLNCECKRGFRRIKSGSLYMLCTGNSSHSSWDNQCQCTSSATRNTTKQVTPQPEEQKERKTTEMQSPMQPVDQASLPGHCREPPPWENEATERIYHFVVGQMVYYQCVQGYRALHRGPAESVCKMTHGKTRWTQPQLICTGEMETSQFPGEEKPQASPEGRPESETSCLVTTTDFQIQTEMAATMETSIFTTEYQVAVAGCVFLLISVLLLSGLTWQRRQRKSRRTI
T2 sequence (looked up) 2: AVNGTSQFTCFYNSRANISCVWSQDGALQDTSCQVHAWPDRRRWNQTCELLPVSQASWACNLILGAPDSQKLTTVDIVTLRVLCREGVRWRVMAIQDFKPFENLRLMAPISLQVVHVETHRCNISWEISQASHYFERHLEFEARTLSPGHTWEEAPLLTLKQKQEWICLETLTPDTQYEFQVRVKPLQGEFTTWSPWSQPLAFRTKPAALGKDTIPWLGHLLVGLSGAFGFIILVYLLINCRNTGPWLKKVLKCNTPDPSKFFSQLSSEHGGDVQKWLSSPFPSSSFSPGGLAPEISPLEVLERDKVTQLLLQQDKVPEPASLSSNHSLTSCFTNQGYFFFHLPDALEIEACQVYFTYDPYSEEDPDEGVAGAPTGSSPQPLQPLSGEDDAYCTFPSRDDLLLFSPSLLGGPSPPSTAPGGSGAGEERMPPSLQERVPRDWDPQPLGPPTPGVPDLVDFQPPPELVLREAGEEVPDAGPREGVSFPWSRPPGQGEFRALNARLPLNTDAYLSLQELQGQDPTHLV
T2 sequence (looked up) 3: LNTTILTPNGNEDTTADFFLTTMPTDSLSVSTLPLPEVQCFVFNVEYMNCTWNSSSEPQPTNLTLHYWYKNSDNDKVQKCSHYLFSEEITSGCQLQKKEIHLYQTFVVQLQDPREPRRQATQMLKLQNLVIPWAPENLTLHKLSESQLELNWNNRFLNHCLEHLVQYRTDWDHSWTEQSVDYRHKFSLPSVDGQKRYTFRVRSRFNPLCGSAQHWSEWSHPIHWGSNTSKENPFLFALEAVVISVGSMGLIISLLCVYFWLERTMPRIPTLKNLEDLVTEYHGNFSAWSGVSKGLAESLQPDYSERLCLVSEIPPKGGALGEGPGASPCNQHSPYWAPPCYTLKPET
The assay is described as follows: cell-based or functional assay.

Some results are limits rather than exact numbers.

B1: CD155-Fc (control) (Fc fusion)
chain 1: WPPPGTGDVVVQAPTQVPGFLGDSVTLPCYLQVPNMEVTHVSQLTWARHGESGSMAVFHQTQGPSYSESKRLEFVAARLGAELRNASLRMFGLRVEDEGNYTCLFVTFPQGSRSVDIWLRVLAKPQNTAEVQKVQLTGEPVPMARCVSTGGRPPAQITWHSDLGGMPNTSQVPGFLSGTVTVTSLWILVPSSQVDGKNVTCKVEHESFEKPQLLTVNLTVYYPPEVSISGYDNNWYLGQNEATLTCDARSNPEPTGYNWSTTMGPLPPFAVAQGAQLLIRPVDKPINTTLICNVTNALGARQAELTVQVKEGPPSEHSGISRNGGGGSGGGDKTHTCPPCPAPEDEGGPSVFLFPPKPKDTLMISRTPEVTCVVVDVSHEDPEVKFNWYVDGVEVHNAKTKPREEQYNSTYRVVSVLTVLHQDWLNGKEYKCKVSNKALPAPIEKTISKAKGQPREPQVYVYPPSREEMTKNQVSLTCLVKGFYPSDIAVEWESNGQPENNYKTTPPVLDEDGSFALVSKLTVDKSRWQQGNVFSCSVMHEALHNHYTQKSLSLSPGK
chain 2: WPPPGTGDVVVQAPTQVPGFLGDSVTLPCYLQVPNMEVTHVSQLTWARHGESGSMAVFHQTQGPSYSESKRLEFVAARLGAELRNASLRMFGLRVEDEGNYTCLFVTFPQGSRSVDIWLRVLAKPQNTAEVQKVQLTGEPVPMARCVSTGGRPPAQITWHSDLGGMPNTSQVPGFLSGTVTVTSLWILVPSSQVDGKNVTCKVEHESFEKPQLLTVNLTVYYPPEVSISGYDNNWYLGQNEATLTCDARSNPEPTGYNWSTTMGPLPPFAVAQGAQLLIRPVDKPINTTLICNVTNALGARQAELTVQVKEGPPSEHSGISRNGGGGSGGGDKTHTCPPCPAPEKKGGPSVFLFPPKPKDTLMISRTPEVTCVVVDVSHEDPEVKFNWYVDGVEVHNAKTKPREEQYNSTYRVVSVLTVLHQDWLNGKEYKCKVSNKALPAPIEKTISKAKGQPREPQVYVLPPSREEMTKNQVSLLCLVKGFYPSDIAVEWESNGQPENRYMTWPPVLDSDGSFFLYSKLTVDKSRWQQGNVFSCSVMHEALHNHYTQKSLSLSPGK
For the molecule B1, the “IL-2 signal transduction, HEK-IL-2-TIGIT” value in assay [1] was less than 0.1%. In addition, the “IL-2 signal transduction, HEK-IL-2” value in assay [2] is less than 0.1%.

B2: IL-2(L18R/Q22E/R38D/K43E/E61R/Q126T)/CD155-Fc (Fc fusion)
chain 1: WPPPGTGDVVVQAPTQVPGFLGDSVTLPCYLQVPNMEVTHVSQLTWARHGESGSMAVFHQTQGPSYSESKRLEFVAARLGAELRNASLRMFGLRVEDEGNYTCLFVTFPQGSRSVDIWLRVLAKPQNTAEVQKVQLTGEPVPMARCVSTGGRPPAQITWHSDLGGMPNTSQVPGFLSGTVTVTSLWILVPSSQVDGKNVTCKVEHESFEKPQLLTVNLTVYYPPEVSISGYDNNWYLGQNEATLTCDARSNPEPTGYNWSTTMGPLPPFAVAQGAQLLIRPVDKPINTTLICNVTNALGARQAELTVQVKEGPPSEHSGISRNGGGGSGGGDKTHTCPPCPAPEDEGGPSVFLFPPKPKDTLMISRTPEVTCVVVDVSHEDPEVKFNWYVDGVEVHNAKTKPREEQYNSTYRVVSVLTVLHQDWLNGKEYKCKVSNKALPAPIEKTISKAKGQPREPQVYVYPPSREEMTKNQVSLTCLVKGFYPSDIAVEWESNGQPENNYKTTPPVLDEDGSFALVSKLTVDKSRWQQGNVFSCSVMHEALHNHYTQKSLSLSPGK
chain 2: WPPPGTGDVVVQAPTQVPGFLGDSVTLPCYLQVPNMEVTHVSQLTWARHGESGSMAVFHQTQGPSYSESKRLEFVAARLGAELRNASLRMFGLRVEDEGNYTCLFVTFPQGSRSVDIWLRVLAKPQNTAEVQKVQLTGEPVPMARCVSTGGRPPAQITWHSDLGGMPNTSQVPGFLSGTVTVTSLWILVPSSQVDGKNVTCKVEHESFEKPQLLTVNLTVYYPPEVSISGYDNNWYLGQNEATLTCDARSNPEPTGYNWSTTMGPLPPFAVAQGAQLLIRPVDKPINTTLICNVTNALGARQAELTVQVKEGPPSEHSGISRNGGGSGAPTSSSTKKTQLQLEHLRLDLEMILNGINNYKNPKLTDMLTFEFYMPKKATELKHLQCLERELKPLEEVLNLAQSKNFHLRPRDLISNINVIVLELKGSETTFMCEYADETATIVEFLNRWITFCTSIISTLTGGGGSGGGDKTHTCPPCPAPEKKGGPSVFLFPPKPKDTLMISRTPEVTCVVVDVSHEDPEVKFNWYVDGVEVHNAKTKPREEQYNSTYRVVSVLTVLHQDWLNGKEYKCKVSNKALPAPIEKTISKAKGQPREPQVYVLPPSREEMTKNQVSLLCLVKGFYPSDIAVEWESNGQPENRYMTWPPVLDSDGSFFLYSKLTVDKSRWQQGNVFSCSVMHEALHNHYTQKSLSLSPGK
With B2, in assay [1], the “IL-2 signal transduction, HEK-IL-2-TIGIT” value is 15%. Moreover, in assay [2], the “IL-2 signal transduction, HEK-IL-2” value stood at 2%.

B3: IL-2(L18R/Q22E/R38D/K43E/E61R)/CD155-Fc (Fc fusion)
chain 1: WPPPGTGDVVVQAPTQVPGFLGDSVTLPCYLQVPNMEVTHVSQLTWARHGESGSMAVFHQTQGPSYSESKRLEFVAARLGAELRNASLRMFGLRVEDEGNYTCLFVTFPQGSRSVDIWLRVLAKPQNTAEVQKVQLTGEPVPMARCVSTGGRPPAQITWHSDLGGMPNTSQVPGFLSGTVTVTSLWILVPSSQVDGKNVTCKVEHESFEKPQLLTVNLTVYYPPEVSISGYDNNWYLGQNEATLTCDARSNPEPTGYNWSTTMGPLPPFAVAQGAQLLIRPVDKPINTTLICNVTNALGARQAELTVQVKEGPPSEHSGISRNGGGGSGGGDKTHTCPPCPAPEDEGGPSVFLFPPKPKDTLMISRTPEVTCVVVDVSHEDPEVKFNWYVDGVEVHNAKTKPREEQYNSTYRVVSVLTVLHQDWLNGKEYKCKVSNKALPAPIEKTISKAKGQPREPQVYVYPPSREEMTKNQVSLTCLVKGFYPSDIAVEWESNGQPENNYKTTPPVLDEDGSFALVSKLTVDKSRWQQGNVFSCSVMHEALHNHYTQKSLSLSPGK
chain 2: WPPPGTGDVVVQAPTQVPGFLGDSVTLPCYLQVPNMEVTHVSQLTWARHGESGSMAVFHQTQGPSYSESKRLEFVAARLGAELRNASLRMFGLRVEDEGNYTCLFVTFPQGSRSVDIWLRVLAKPQNTAEVQKVQLTGEPVPMARCVSTGGRPPAQITWHSDLGGMPNTSQVPGFLSGTVTVTSLWILVPSSQVDGKNVTCKVEHESFEKPQLLTVNLTVYYPPEVSISGYDNNWYLGQNEATLTCDARSNPEPTGYNWSTTMGPLPPFAVAQGAQLLIRPVDKPINTTLICNVTNALGARQAELTVQVKEGPPSEHSGISRNGGGSGAPTSSSTKKTQLQLEHLRLDLEMILNGINNYKNPKLTDMLTFEFYMPKKATELKHLQCLERELKPLEEVLNLAQSKNFHLRPRDLISNINVIVLELKGSETTFMCEYADETATIVEFLNRWITFCQSIISTLTGGGGSGGGDKTHTCPPCPAPEKKGGPSVFLFPPKPKDTLMISRTPEVTCVVVDVSHEDPEVKFNWYVDGVEVHNAKTKPREEQYNSTYRVVSVLTVLHQDWLNGKEYKCKVSNKALPAPIEKTISKAKGQPREPQVYVLPPSREEMTKNQVSLLCLVKGFYPSDIAVEWESNGQPENRYMTWPPVLDSDGSFFLYSKLTVDKSRWQQGNVFSCSVMHEALHNHYTQKSLSLSPGK
For the molecule B3, the “IL-2 signal transduction, HEK-IL-2-TIGIT” value in assay [1] was found to be 56%. In addition, the “IL-2 signal transduction, HEK-IL-2” value in assay [2] stood at 9%.

B4: IL-2(R38D/K43E/E61R/Q126T)/CD155-Fc (Fc fusion)
chain 1: WPPPGTGDVVVQAPTQVPGFLGDSVTLPCYLQVPNMEVTHVSQLTWARHGESGSMAVFHQTQGPSYSESKRLEFVAARLGAELRNASLRMFGLRVEDEGNYTCLFVTFPQGSRSVDIWLRVLAKPQNTAEVQKVQLTGEPVPMARCVSTGGRPPAQITWHSDLGGMPNTSQVPGFLSGTVTVTSLWILVPSSQVDGKNVTCKVEHESFEKPQLLTVNLTVYYPPEVSISGYDNNWYLGQNEATLTCDARSNPEPTGYNWSTTMGPLPPFAVAQGAQLLIRPVDKPINTTLICNVTNALGARQAELTVQVKEGPPSEHSGISRNGGGGSGGGDKTHTCPPCPAPEDEGGPSVFLFPPKPKDTLMISRTPEVTCVVVDVSHEDPEVKFNWYVDGVEVHNAKTKPREEQYNSTYRVVSVLTVLHQDWLNGKEYKCKVSNKALPAPIEKTISKAKGQPREPQVYVYPPSREEMTKNQVSLTCLVKGFYPSDIAVEWESNGQPENNYKTTPPVLDEDGSFALVSKLTVDKSRWQQGNVFSCSVMHEALHNHYTQKSLSLSPGK
chain 2: WPPPGTGDVVVQAPTQVPGFLGDSVTLPCYLQVPNMEVTHVSQLTWARHGESGSMAVFHQTQGPSYSESKRLEFVAARLGAELRNASLRMFGLRVEDEGNYTCLFVTFPQGSRSVDIWLRVLAKPQNTAEVQKVQLTGEPVPMARCVSTGGRPPAQITWHSDLGGMPNTSQVPGFLSGTVTVTSLWILVPSSQVDGKNVTCKVEHESFEKPQLLTVNLTVYYPPEVSISGYDNNWYLGQNEATLTCDARSNPEPTGYNWSTTMGPLPPFAVAQGAQLLIRPVDKPINTTLICNVTNALGARQAELTVQVKEGPPSEHSGISRNGGGSGAPTSSSTKKTQLQLEHLLLDLQMILNGINNYKNPKLTDMLTFEFYMPKKATELKHLQCLERELKPLEEVLNLAQSKNFHLRPRDLISNINVIVLELKGSETTFMCEYADETATIVEFLNRWITFCTSIISTLTGGGGSGGGDKTHTCPPCPAPEKKGGPSVFLFPPKPKDTLMISRTPEVTCVVVDVSHEDPEVKFNWYVDGVEVHNAKTKPREEQYNSTYRVVSVLTVLHQDWLNGKEYKCKVSNKALPAPIEKTISKAKGQPREPQVYVLPPSREEMTKNQVSLLCLVKGFYPSDIAVEWESNGQPENRYMTWPPVLDSDGSFFLYSKLTVDKSRWQQGNVFSCSVMHEALHNHYTQKSLSLSPGK
As to B4, the “IL-2 signal transduction, HEK-IL-2-TIGIT” value in assay [1] came out at 29%. Further, the “IL-2 signal transduction, HEK-IL-2” value in assay [2] was determined as 3%.
